Results as given in US20240216557A1, “RADIOLIGAND BINDING TO ANTI-DLL3 ANTIBODIES FOR PRETARGETED PET IMAGING AND THERAPEUTIC USES THEREOF” (Memorial Sloan-Kettering Cancer Center, priority 2021, published 2024).

B1: B22: anti-DLL3 antibody, VH SEQ ID NO: 141, VL SEQ ID NO: 142 (antibody, V domains shown)
VH: EVQLVESGGGLVQPGGSLRLSCAASGFTFNNFWMSWVRQAPGKGLEWVANIKQDGSEKYYVDSVKGRFTISRDNAKNSLYLQMNSLRAEDTAVYYCARESYFDLWGRGTLVTVSS
VL: QAVVTQESALTTSPGETVTLTCRSSTGAVTTSNYANWVQEKPDHLFTGLIGGTNNRAPGVPARFSGSLIGDKAALTITGAQTEDEAIYFCALWYSNRWVFGGGTKLTVL
B2: B16-v2: anti-DLL3 antibody, VH SEQ ID NO: 108, VL SEQ ID NO: 113 (antibody, V domains shown)
VH: QVQLVQSGAEVKKPGASVKVSCKASGYTFTSYYMHWVRQAPGQGLEWMGIIDPSGGSTSYAQKFQGRVTMTRDTSTNTVYMDLSSLRSEDTAVYYCARQGRYVGSYLDYWGQGTLVTVSS
VL: DIQMTQSPSSLSASVGDRVTITCRASQGISNYLAWFQQKPGKAPKSVIYAASSLQSGVPSKFSGSGSGTDFTLTISSMQPEDFATYYCQQYNSYPYTFGQGTKLEIK
B3: E9: anti-DLL3 antibody, VH SEQ ID NO: 42, VL SEQ ID NO: 43 (antibody, V domains shown)
VH: QVQLVQSGAEVKKPGASVKVSCKASGYTFTSYYMHWVRQAPGQGLEWMGVINSSGGSTSYAQKFQGRVTMTRDTSTSTVYMDLSSLRSEDTAVYYCARGYCTNGVYYDEDFDYWGQGTLVTVSS
VL: DIQMTQSPSSLSASVGDRVTITCRASQGISHYLAWFQQKPGKAPTSLIYAASSLQSGVPSKFSGSGSGTDFTLTISSLQPEDFATYYCQQYNSYPLTFGGGTKVEIK
B4: O24: anti-DLL3 antibody, VH SEQ ID NO: 66, VL SEQ ID NO: 67 (antibody, V domains shown)
VH: QVQLVQSGAEVKKPGASVKVSCKASGYTFTSYYLHWVRQAPGHGLEWMAIINPSGGSTSYAQKFLGRVTMTRDTSTNTVYMELSSLRSEDTAVYYCARERQQLDYYYFAMDVWGQGTTVTVSS
VL: DIQMTQSPSSLSASVGDRVTITCRASQGISNYLAWFQQKPGKAPKSLIYAASSLQSGVPSKFSGSGSGTDFTLTISSLQPEDFATYYCQQYNSYPPTFGQGTKVEIK
B5: J8: anti-DLL3 antibody, VH SEQ ID NO: 7, VL SEQ ID NO: 8 (antibody, V domains shown)
VH: QVHLVQSGAEVKKPGASVKVSCKASGYTFTIYYIHWVRQAPGQGLEWMGIINPSGGSTSYAQKFQGRVTMTRDTSTSTVYMELSSLRSEDTAVYYCSGNDYVDYVTTDYYGMDVWGQGTTVTVSS
VL: DIQMTQSPSSLSASVGDRVTITCRASQGISNYLAWFQQKPGKAPKSLIYAASSLQSGVPSKFSGSGSGTDFTLTISSLQPEDFATYYCQQYNSSPYTFGQGTKLEIK
B6: L22: anti-DLL3 antibody, VH SEQ ID NO: 17, VL SEQ ID NO: 18 (antibody, V domains shown)
VH: EVQLLESGGGLVQPGGSLRLSCAASGFTFSSYAMGWVRQTPGKGLEWVSTISGRGGDTYYADSVKGRFTISRDNSKNTLYLQMNSLRAEDTAIYYCAKERGLGFDYWGQGTLVTVSS
VL: DIVMTQTPLSLPVTPGEPASISCRSSQSLLDSDDGNTYLDWYLQKPGQSPQLLIYTLSYRASGVPDRFSGSGSGTDFTLKISRVEAEDVGVYYCMQHLEFPLTFGGGTKVEIK
B7: G16: anti-DLL3 antibody, VH SEQ ID NO: 157, VL SEQ ID NO: 158 (antibody, V domains shown)
VH: QVQLVQSGAEVKKPGASVQVSCKASGYTFTSYYMHWVRQAPGQGLEWMGIINPSGGSTSYAQKFQGRVTMTRDTSTSTVYMELSSLRSEDTAVYYCARQGGAQWLVLAFDIWGQGTMVTVSS
VL: EIVLTQSPGTLSLSPGERATLSCRASQSVSSYLAWYQQKPGQAPRLLIYGASSRATGIPDRFSGGGSGTDFTLTISRLEPEDFAVYYCQQYGSSPYTFGQGTKLEIK
B8: F9: anti-DLL3 antibody, VH SEQ ID NO: 126, VL SEQ ID NO: 127 (antibody, V domains shown)
VH: QVQLVQSGAEVKKPGASVQVSCKASGYTFTSYYMHWVRQAPGQGLEWMGIINPSGGSTSYAQKFQGRVTMTRDTSTSTVYMELSSLRSEDTAVYYCARQGGAQWLVLAFDIWGQGTMVTVSS
VL: EIVLTQSPGTLSLSPGERATLSCRASQSVSSYLAWYQQKPGQPPRLLIYGASSRATGIPDRFSGGGSGTDFTLTISRLEPEDFAVYYCQQYDSSPYTFGQGTKLEIK
B9: E23: anti-DLL3 antibody, VH SEQ ID NO: 119, VL SEQ ID NO: 120 (antibody, V domains shown)
VH: QVQLVQSGAEVRKPGASVKVSCKASGYTFTGYYMHWVRQAPGQGLEWMGWINSYSGGANYAQKFQDRVTMTRDTSVSTASMELSRLRSDDTAVYYCARDGSGWYGSYFDFWGQGTLVTVSS
VL: DIVMTQTPLSSPVTLGQPASISCRSSQSLVHSDGNTYLSWLQQRPGQPPRLLIYKISNRFSGVPDRFSGSGAGTDFTLKISRVEAEDVGFYYCIQTTQFPLTFGGGTKVEIK
B10: A18: anti-DLL3 antibody, VH SEQ ID NO: 34, VL SEQ ID NO: 35 (antibody, V domains shown)
VH: QVTLRESGPALVKSTQTLTLTCTFSGFSLSTSGMCVSWIRQTPGKALEWLALIDWDDNKYYSTSLKTRLIISKDTSKNQVVLTMTNMEPVDTATYYCARIRGYSGSYDAFDIWGQGTMVTVSS
VL: DIVMTQSPLSLPVTPGEPASISCRSSQSLLHSNGYNYLDWYLQKPGQSPHILLYLGSNRAPGVPDRFSGSGSGTDFTLKISRVEAEDVGVYYCMQALQTPFTFGPGTKVDIK
B11: SC16: DLL3-targeting SC16 antibody component of Rova-T (antibody, chains of the INN, looked up, V domains shown)
VH: QVQLVQSGAEVKKPGASVKVSCKASGYTFTNYGMNWVRQAPGQGLEWMGWINTYTGEPTYADDFKGRVTMTTDTSTSTAYMELRSLRSDDTAVYYCARIGDSSPSDYWGQGTLVTVSS
VL: EIVMTQSPATLSVSPGERATLSCKASQSVSNDVVWYQQKPGQAPRLLIYYASNRYTGIPARFSGSGSGTEFTLTISSLQSEDFAVYYCQQDYTSPWTFGQGTKLEIK
B12: [^89Zr]Zr-DFO-SC16 (conjugate, chains of the INN, looked up)
VH: QVQLVQSGAEVKKPGASVKVSCKASGYTFTNYGMNWVRQAPGQGLEWMGWINTYTGEPTYADDFKGRVTMTTDTSTSTAYMELRSLRSDDTAVYYCARIGDSSPSDYWGQGTLVTVSS
VL: EIVMTQSPATLSVSPGERATLSCKASQSVSNDVVWYQQKPGQAPRLLIYYASNRYTGIPARFSGSGSGTEFTLTISSLQSEDFAVYYCQQDYTSPWTFGQGTKLEIK
modifications: DFO chelator, 89Zr label

Biological target: T1, Histidine-tagged DLL3 antigen (DLL3-His) (Homo sapiens, UniProt Q9NYJ7)
T1 construct: corresponding to amino acids Ala27-Ala479 with a C-terminal 6×His tag; made in house; host or cells: HEK293T cells
T1 sequence (Q9NYJ7 27-479): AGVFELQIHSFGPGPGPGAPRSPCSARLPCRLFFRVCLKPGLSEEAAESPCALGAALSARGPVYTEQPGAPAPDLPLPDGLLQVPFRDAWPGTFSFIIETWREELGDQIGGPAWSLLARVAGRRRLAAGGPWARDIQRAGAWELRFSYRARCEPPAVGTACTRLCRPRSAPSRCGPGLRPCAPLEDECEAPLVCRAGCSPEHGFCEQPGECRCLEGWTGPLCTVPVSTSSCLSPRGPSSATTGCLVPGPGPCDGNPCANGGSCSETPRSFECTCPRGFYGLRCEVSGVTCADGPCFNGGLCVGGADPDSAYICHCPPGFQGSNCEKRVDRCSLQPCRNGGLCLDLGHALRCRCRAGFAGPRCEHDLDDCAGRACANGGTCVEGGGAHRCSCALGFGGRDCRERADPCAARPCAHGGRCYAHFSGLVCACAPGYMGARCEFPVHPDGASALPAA
Assay: Pairwise epitope binning on Carterra array SPR
Settings: pairwise competition for binding to DLL3-His, antibodies immobilized on HC200M chip
Experimental: The panel of purified anti-DLL3 monoclonal antibodies and the reference monoclonal antibody were subjected to pairwise epitope binning on a Carterra® array surface plasmon resonance (SPR) assay platform (Carterra*Inc., Salt Lake City UT) where each monoclonal antibody was tested for the capture of Histidine-tagged DLL3 antigen (DLL3-His), and also for competing with every other antibody in the panel for the binding to DLL3-His. The antibodies were immobilized on a HC200M chip (ligand) through standard amine coupling techniques by the print array method. Then in each cycle antigen was injected across the entire array followed by a single antibody (analyte). At the end of each cycle the surface was regenerated to remove antigen and analyte before a new cycle started.

Molecule	Epitope Bin
B1	2
B2	4
B3	4
B4	4
B5	4
B6	8
B7	4
B8	4
B9	7
B10	6

Biological target: T2, hDLL1 (Homo sapiens, UniProt O00548)
T2 sequence (O00548 18-723): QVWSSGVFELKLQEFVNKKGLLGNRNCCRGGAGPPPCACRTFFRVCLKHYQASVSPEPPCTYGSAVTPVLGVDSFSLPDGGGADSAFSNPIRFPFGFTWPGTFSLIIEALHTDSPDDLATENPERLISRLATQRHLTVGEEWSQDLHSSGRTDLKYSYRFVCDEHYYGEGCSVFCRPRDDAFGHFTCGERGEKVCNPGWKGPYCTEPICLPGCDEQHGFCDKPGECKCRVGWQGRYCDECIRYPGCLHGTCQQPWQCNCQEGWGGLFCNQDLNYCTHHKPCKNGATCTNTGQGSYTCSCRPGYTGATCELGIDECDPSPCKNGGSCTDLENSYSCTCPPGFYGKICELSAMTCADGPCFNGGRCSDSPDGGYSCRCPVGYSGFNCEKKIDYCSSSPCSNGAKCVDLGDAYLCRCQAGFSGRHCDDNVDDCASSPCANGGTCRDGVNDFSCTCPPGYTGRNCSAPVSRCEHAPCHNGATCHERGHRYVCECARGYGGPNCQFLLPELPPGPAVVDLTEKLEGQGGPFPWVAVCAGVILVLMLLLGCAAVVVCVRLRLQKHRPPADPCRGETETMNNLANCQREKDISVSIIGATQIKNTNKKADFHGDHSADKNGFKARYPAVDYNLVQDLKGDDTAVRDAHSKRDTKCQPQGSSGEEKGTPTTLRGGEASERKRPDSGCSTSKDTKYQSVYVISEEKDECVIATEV
Assay: ELISA specificity, hDLL1
Format: binding
Settings: not given
Experimental: Next, affinity, binding domain, and specificity of antibodies including scFv designated as J8, B2, and L22 were analyzed. Affinity, binding domain and specificity of novel human anti-DLL3 antibodies are depicted in Table 30 below.

Molecule	ELISA hDLL1
B5	0.095
B6	0.105

System: SCLC cells
Assay: not given
Settings: cited from earlier work

Molecule	internalization by SCLC cells upon binding to DLL3
B11	rapidly internalized

System: SCLC xenografts
Assay: not given
Settings: mouse, in vivo, sc; cited from earlier work

Molecule	time post-injection at which optimal imaging was achieved
B12	≥ 120
